Source: US11833164B2, “Methods of treating Fabry disease in patients having a mutation in the GLA gene” (Amicus Therapeutics, Inc., priority 2019, dated 2023)

Tested on: mutant form of α-Gal A expressed in HEK-293 cells
Experiment: HEK assay (GLP HEK / Migalastat Amenability Assay): α-Gal A activity in lysates of transiently transfected HEK-293 cells incubated with or without 10 μM migalastat
Assay type: cell-based, human
Settings: for Absolute increase (% WT) / Relative increase: 10 μM migalastat versus baseline; for Baseline α-Gal A activity (% WT): absence of migalastat; for Baseline α-Gal A activity (% WT) / 10 μM migalastat α-Gal A activity (% WT): percentage of baseline wild-type α-Gal A activity; for Baseline α-Gal A activity (% WT) / Baseline α-Gal A activity / 10 μM migalastat α-Gal A activity / 10 μM migalastat α-Gal A activity (% WT): mean ± SEM; for Baseline α-Gal A activity / 10 μM migalastat α-Gal A activity: lysates of HEK-293 cells transiently transfected with the mutant form; for Baseline α-Gal A activity: incubated 5 days in absence of migalastat; for 10 μM migalastat α-Gal A activity: incubated 5 days with 10 μM migalastat; for 10 μM migalastat α-Gal A activity (% WT): with 10 μM migalastat, 5 days
Summary of the method: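 Activity reported as 4-MU released (nmol/mg/hr), mean±SEM, from lysates of transiently transfected HEK-293 cells expressing mutant α-Gal A, cultured with or without 10 μM migalastat.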

B1: I317M (protein)
chain: MQLRNPELHLGCALALRFLALVSWDIPGARALDNGLARTPTMGWLHWERFMCNLDCQEEPDSCISEKLFMEMAELMVSEGWKDAGYEYLCIDDCWMAPQRDSEGRLQADPQRFPHGIRQLANYVHSKGLKLGIYADVGNKTCAGFPGSFGYYDIDAQTFADWGVDLLKFDGCYCDSLENLADGYKHMSLALNRTGRSIVYSCEWPLYMWPFQKPNYTEIRQYCNHWRNFADIDDSWKSIKSILDWTSFNQERIVDVAGPGGWNDPDMLVIGNFGLSWNQQVTQMALWAIMAAPLFMSNDLRHISPQAKALLQDKDVMAINQDPLGKQGYQLRQGDNFEVWERPLSGLAWAVAMINRQEIGGPRSYTIAVASLGKGVACNPACFITQLLPVKRKLGFYEWTSRLRSHINPTGTVLLQLENTMQMSLKDLL
Absolute increase (% WT): 10.2 % WT
Relative increase: 11.7
Baseline α-Gal A activity (% WT): 1 ± 0.1 % WT
Baseline α-Gal A activity: 340 ± 29 nmol/mg/h
10 μM migalastat α-Gal A activity: 3988 ± 177 nmol/mg/h
10 μM migalastat α-Gal A activity (% WT): 11.2 ± 0.8 % WT

B2: I317V (protein)
chain: MQLRNPELHLGCALALRFLALVSWDIPGARALDNGLARTPTMGWLHWERFMCNLDCQEEPDSCISEKLFMEMAELMVSEGWKDAGYEYLCIDDCWMAPQRDSEGRLQADPQRFPHGIRQLANYVHSKGLKLGIYADVGNKTCAGFPGSFGYYDIDAQTFADWGVDLLKFDGCYCDSLENLADGYKHMSLALNRTGRSIVYSCEWPLYMWPFQKPNYTEIRQYCNHWRNFADIDDSWKSIKSILDWTSFNQERIVDVAGPGGWNDPDMLVIGNFGLSWNQQVTQMALWAIMAAPLFMSNDLRHISPQAKALLQDKDVVAINQDPLGKQGYQLRQGDNFEVWERPLSGLAWAVAMINRQEIGGPRSYTIAVASLGKGVACNPACFITQLLPVKRKLGFYEWTSRLRSHINPTGTVLLQLENTMQMSLKDLL
Absolute increase (% WT): 18.6 % WT
Relative increase: 1.3
Baseline α-Gal A activity (% WT): 55 ± 6.1 % WT
Baseline α-Gal A activity: 14885 ± 1495 nmol/mg/h
10 μM migalastat α-Gal A activity: 19927 ± 1565 nmol/mg/h
10 μM migalastat α-Gal A activity (% WT): 73.6 ± 5.5 % WT

B3: A318D (protein)
chain: MQLRNPELHLGCALALRFLALVSWDIPGARALDNGLARTPTMGWLHWERFMCNLDCQEEPDSCISEKLFMEMAELMVSEGWKDAGYEYLCIDDCWMAPQRDSEGRLQADPQRFPHGIRQLANYVHSKGLKLGIYADVGNKTCAGFPGSFGYYDIDAQTFADWGVDLLKFDGCYCDSLENLADGYKHMSLALNRTGRSIVYSCEWPLYMWPFQKPNYTEIRQYCNHWRNFADIDDSWKSIKSILDWTSFNQERIVDVAGPGGWNDPDMLVIGNFGLSWNQQVTQMALWAIMAAPLFMSNDLRHISPQAKALLQDKDVIDINQDPLGKQGYQLRQGDNFEVWERPLSGLAWAVAMINRQEIGGPRSYTIAVASLGKGVACNPACFITQLLPVKRKLGFYEWTSRLRSHINPTGTVLLQLENTMQMSLKDLL
Absolute increase (% WT): 16.9 % WT
Relative increase: 1.4
Baseline α-Gal A activity (% WT): 42.5 ± 3.6 % WT
Baseline α-Gal A activity: 15357 ± 1499 nmol/mg/h
10 μM migalastat α-Gal A activity: 20838 ± 1817 nmol/mg/h
10 μM migalastat α-Gal A activity (% WT): 59.4 ± 5.3 % WT

B4: A318P (protein)
chain: MQLRNPELHLGCALALRFLALVSWDIPGARALDNGLARTPTMGWLHWERFMCNLDCQEEPDSCISEKLFMEMAELMVSEGWKDAGYEYLCIDDCWMAPQRDSEGRLQADPQRFPHGIRQLANYVHSKGLKLGIYADVGNKTCAGFPGSFGYYDIDAQTFADWGVDLLKFDGCYCDSLENLADGYKHMSLALNRTGRSIVYSCEWPLYMWPFQKPNYTEIRQYCNHWRNFADIDDSWKSIKSILDWTSFNQERIVDVAGPGGWNDPDMLVIGNFGLSWNQQVTQMALWAIMAAPLFMSNDLRHISPQAKALLQDKDVIPINQDPLGKQGYQLRQGDNFEVWERPLSGLAWAVAMINRQEIGGPRSYTIAVASLGKGVACNPACFITQLLPVKRKLGFYEWTSRLRSHINPTGTVLLQLENTMQMSLKDLL
Absolute increase (% WT): 6.5 % WT
Relative increase: 5.3
Baseline α-Gal A activity (% WT): 1.5 ± 0.2 % WT
Baseline α-Gal A activity: 526 ± 42 nmol/mg/h
10 μM migalastat α-Gal A activity: 2799 ± 174 nmol/mg/h
10 μM migalastat α-Gal A activity (% WT): 8 ± 0.8 % WT
